The values below come from patent US20260092116A1 (DARTSBIO PHARMACEUTICALS, published 2026).

The target in assay [1] is T1, his-tagged human B7H3 antigen protein (human, UniProt Q5ZPR3 29-461, limits assumed).
T1 construct: also called B7H3-his; CD276; not shown: his tag
T1 sequence (looked up): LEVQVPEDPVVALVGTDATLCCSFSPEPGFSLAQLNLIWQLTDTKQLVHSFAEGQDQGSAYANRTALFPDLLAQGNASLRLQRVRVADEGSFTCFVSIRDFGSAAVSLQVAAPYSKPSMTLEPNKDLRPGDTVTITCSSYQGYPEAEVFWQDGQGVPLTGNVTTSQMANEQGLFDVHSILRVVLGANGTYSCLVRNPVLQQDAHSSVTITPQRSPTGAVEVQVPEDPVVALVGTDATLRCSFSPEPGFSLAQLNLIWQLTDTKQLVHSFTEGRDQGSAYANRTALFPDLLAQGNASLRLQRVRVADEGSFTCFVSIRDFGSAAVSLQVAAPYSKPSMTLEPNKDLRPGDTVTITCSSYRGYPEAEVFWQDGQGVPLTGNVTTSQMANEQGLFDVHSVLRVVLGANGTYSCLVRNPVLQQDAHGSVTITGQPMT
The assay can be described thus: binding ELISA, plate coated with his-tagged B7H3 at 2 ug/ml. As for the experimental part: (§1) A 96-well ELISA plate was coated with 2 μg/ml of his-tagged PDL1 or B7H3 antigen protein at 4° C. overnight, and 100 μl of Casein blocking solution was added to each well the next day for blocking at 37° C. for 1 hour. […] After incubation at 37° C. for 1 hour, unbound antibodies were washed off with 0.1% PBST, and bound antibodies were detected using horseradish peroxidase (HRP)-conjugated goat anti-human IgG (H+L) antibody (Jackson ImmunoResearch, USA), and 50 μl of 3,3′,5,5′-tetramethylbenzidine substrate (TMB) was used for color development. After standing for 5 minutes, 50 μl of 2 M sulfuric acid was added to stop the color development, and then the absorbance was detected using a SpectraMax M5e (Molecular Devices) microplate reader at OD450 nm. The antibody concentration was plotted against the OD450 reading using a 4-parameter fitting method, and the EC₅₀ was calculated.
On the technique in general: ELISA stands for enzyme-linked immunosorbent assay.

The target in assay [2] is T2, B7H3 antigen (huB7H3 antigen) (human, UniProt Q5ZPR3 29-461, limits assumed).
T2 sequence (looked up): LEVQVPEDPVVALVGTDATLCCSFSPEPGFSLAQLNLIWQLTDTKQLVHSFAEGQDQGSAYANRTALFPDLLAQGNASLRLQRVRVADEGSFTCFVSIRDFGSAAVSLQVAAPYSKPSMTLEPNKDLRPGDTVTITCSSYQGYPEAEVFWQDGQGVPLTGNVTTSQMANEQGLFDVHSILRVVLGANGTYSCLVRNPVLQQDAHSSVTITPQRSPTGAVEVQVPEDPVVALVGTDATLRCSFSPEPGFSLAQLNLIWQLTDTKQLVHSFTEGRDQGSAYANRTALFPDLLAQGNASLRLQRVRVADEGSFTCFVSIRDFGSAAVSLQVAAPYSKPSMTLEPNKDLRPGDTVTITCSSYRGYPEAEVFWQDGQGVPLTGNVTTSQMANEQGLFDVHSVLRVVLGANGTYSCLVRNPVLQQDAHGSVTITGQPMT
Description: BLI, VHH-Fc (100 nM) captured on Protein A probe, B7H3 antigen from 200 nM in 2-fold dilutions. As for the experimental part: The above phage clones were sequenced to obtain the B7H3 VHH gene sequence, and its C-terminus was fused with the human Fc protein gene to construct and express B7H3-Fc. 100nM of B7H3 VHH-Fc was captured by the biolayer interferometry method using the Protein A probe and bound to B7H3 antigen with an initial concentration of 200 nM, a 2-fold dilution. The KD value of the antibody binding to antigen was calculated.
A general note: BLI is a label-free optical method that tracks binding on a fibre tip over time.

For assay [3], the target named is T3, biotinylated PDL1 antigen (human, UniProt Q9NZQ7 19-238, biotinylated (sites not given)).
T3 construct: also called human PDL1 (biotinylated)
Description: flow cytometry, blocking of biotinylated PDL1 (50 nM) binding to CHO-PD1 cells. As for the experimental part:
The mixed solution was then incubated with the cells at 4° C. for 45 minutes, and unbound antigens were washed off with PBS.
The cells were then fluorescently stained with PE-streptavidin. Finally, the mean fluorescence intensity (MFI) of the PE channel in the flow cytometer was read, the antibody concentration was plotted against MFI, and the IC₅₀ of the antibody was calculated using a four-parameter fitting.
On the technique in general: A flow cytometer gives signals particle by particle.

Assay [4] concerns the target T4, his-tagged human PDL1 antigen protein (human, UniProt Q9NZQ7 19-238).
T4 construct: also called PDL1-his; not shown: his tag
The assay can be described thus: binding ELISA, plate coated with his-tagged PDL1 at 2 ug/ml. As for the experimental part: as §1

In assay [5] the target is T1, his-tagged human B7H3 antigen protein. Description: ELISA on coated B7H3-his, bispecific antibody after 1 hour at 60°C. As to the method: as §1
The target is the same in assay [6]. Description: BLI (Octet), antibody on Protein A probe, B7H3-his from 200 nM in 2-fold dilutions. As for the experimental part:
(§2) Kon and Koff values were calculated using the software provided by the supplier to obtain the KD value of the antibody.

For assay [7], the target named is T4, his-tagged human PDL1 antigen protein. Description: ELISA on coated PDL1-his, bispecific antibody not heat-treated (4°C). As to the method: as §1
Assay [8] addresses T1, his-tagged human B7H3 antigen protein. Description: ELISA on coated B7H3-his, bispecific antibody not heat-treated (4°C). As to the method:
as §1

The target of assay [9] is T4, his-tagged human PDL1 antigen protein. The assay can be described thus: ELISA on coated PDL1-his, bispecific antibody after 1 hour at 60°C. As for the experimental part: as §1
The target is the same in assay [10]. Description: BLI (Octet), antibody on Protein A probe, PDL1-his from 200 nM in 2-fold dilutions. As for the experimental part: as §2

T4 sequence (Q9NZQ7 19-238 limits assumed): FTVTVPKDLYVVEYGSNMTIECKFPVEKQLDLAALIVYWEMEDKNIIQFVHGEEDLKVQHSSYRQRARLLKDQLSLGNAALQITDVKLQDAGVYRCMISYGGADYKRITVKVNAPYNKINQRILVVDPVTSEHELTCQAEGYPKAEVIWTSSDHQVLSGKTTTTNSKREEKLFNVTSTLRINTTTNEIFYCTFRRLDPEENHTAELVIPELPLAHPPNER
T3 sequence (Q9NZQ7 19-238 limits assumed): as above

B1: B7H3 VHH-Fc (humanized anti-B7H3 VHH 75-16 fused to human Fc) (Fc fusion)
chain: DVQLQESGGGLVQAGGSLRLSCTASGYTLSTIWIGWFRQAPGKGLEGVAAIYIGSGATYYVDSVKGRFTISQDNAKNTVYLQMNSLKPEDTAMYYCAATGGTVGSMVRFSPVGDFGYWGQGTQVTVSS
notes: also called B7H3-Fc; not shown: human Fc fused to the C-terminus of the VHH
What is called EC50 is the concentration at which the effect is half-maximal. A lower EC50 goes with greater potency. As usually defined, the Kd is the free concentration of one partner at which half of the binding sites on the other are occupied at equilibrium, for simple one-to-one binding. Read a low Kd as higher affinity. On to B1, for which, in assay [1], the EC50 was found to be 0.0251 nM. The same molecule came in with a Kd in [2] of 3.24 nM.

B2: Enoblituzumab (MGA271) (antibody, V domains shown)
VH: EVQLVESGGGLVQPGGSLRLSCAASGFTFSSFGMHWVRQAPGKGLEWVAYISSDSSAIYYADTVKGRFTISRDNAKNSLYLQMNSLRDEDTAVYYCGRGRENIYYGSRLDYWGQGTTVTVSS
VL: DIQLTQSPSFLSASVGDRVTITCKASQNVDTNVAWYQQKPGKAPKALIYSASYRYSGVPSRFSGSGSGTDFTLTISSLQPEDFATYYCQQYNNYPFTFGQGTKLEIKR
Regarding B2, in assay [1], the response was half-maximal at 0.0548 nM (EC50).

B3: PDL1 monoclonal antibody (antibody, human IgG1, kappa, V domains shown)
VH: QVQLVQSGAEVKKPGASVKVSCKASGYTFTTFGVHWVRQAPGKGLEWVGIIWPGGNTNYNSALMSRVTITADESTSTAYMELSSLRSEDTAVYYCARENYGRAMDYWGQGTTVTVSS
VL: DIQMTQSPSSLSASVGDRVTISCRASQSINTYLHWYQQKLGQAPRLLIYYASQSISGVPSRFSGSGSGTDFTLTINSLEAEDAATYYCQNGHSFPLTFGAGTKVEIKR
notes: Parental humanized IgG1 of the bispecific antibody; also called PDL1 hIgG1 humanized monoclonal antibody
As usually defined, the IC50 is the point on the concentration scale where inhibition reaches its midpoint. Lower therefore signals greater potency in that assay. In [3], B3 gave an IC50 of 94.2 nM. In addition, in assay [4], the EC50 is 0.441 nM.

B4: B7H3/PDL1 bispecific antibody (bispecific antibody, human IgG1, kappa)
heavy: not shown
light: DIQMTQSPSSLSASVGDRVTISCRASQSINTYLHWYQQKLGQAPRLLIYYASQSISGVPSRFSGSGSGTDFTLTINSLEAEDAATYYCQNGHSFPLTFGAGTKVEIKRTVAAPSVFIFPPSDEQLKSGTASVVCLLNNFYPREAKVQWKVDNALQSGNSQESVTEQDSKDSTYSLSSTLTLSKADYEKHKVYACEVTHQGLSSPVTKSFNRGEC
notes: Anti-PDL1 hIgG1 with one anti-B7H3 VHH (75-16) at the C-terminus of each heavy chain's Fc; also called IgG-VHH2
The term EC50 (read off the curve) denotes the concentration at which the effect is half-maximal. Low values mean a more potent agent, high ones a less potent agent. B4 gave an IC50 in [3] of 106 nM. Besides, the “EC50 (read off the curve)” value in [5] was about 0.02 nM; in assay [7], about 0.04 nM; in assay [8], about 0.02 nM; in assay [9], about 0.04 nM. In addition, the Kd in assay [6] was determined as 8.11 nM; in [10], 0.585 nM. Moreover, the EC50 is 0.0411 nM in [1] and 0.306 nM in assay [4].
